Laboratory results published in patent US20210301005A1 (Genentech, published 2021).
Positions count from the first letter of the chain named. Where two headings read alike, the source gives them in different places.

B1: h6F12.v4 (antibody, human IgG1, kappa, N297G, V domains shown)
VH: EVQLQESGPGLVKPSETLSLTCTVSGFSLTTYNVHWVRQPPGKGLEWMGLIWNTGGTRYNSALKSRLTISKDTSKSQVSLKLSSVTAADTAVYYCARDPVPNKWHFDFWGPGTLVTVSS
VL: EIVMTQSPATLSVSPGERATLSCLASEDIYSNLAWYQQKPGQSPRLLIYDARSLQDGVPARFSGSESGPEYTLTISSLQSEDFAVYFCQQHHAYPFTFGQGTKVEIKR
B2: h4A11.v7.11 (antibody, human IgG1, kappa, N297G, V domains shown)
VH: EQQLQESGPGLVKPSETLSLTCTVTGFSLSSYTVNWVRQPAGKGLEWIGYISYGGSAYYASWANGRFTISVDSSKNQVSLKLSSVTAADTAVYFCARHMQVGGAPTGSMAAFDPWGPGTLVTVSS
VL: EAVLTQSPGTLSLSPGERATLSCQSSQSVYNNNYLSWFQQKPGQPPRLLIYGASTLTSGVPDRFSGSGSGTDFTLTISRLEPEDFAVYYCAGGYSGSSDKYAFGGGTKVEIKR
B3: h4A11.v7.5 (antibody, V domains shown)
VH: B2 VH with V71K
VL: EAVLTQSPGTLSLSPGERATLSCQSSQSVYNNNYLSWYQQKPGQPPRLLIYGASTLTSGVPDRFSGSGSGTDFTLTISRLEPEDFAVYYCAGGYSGSSDKYAFGGGTKVEIK
B4: h4A11.v7.13 (antibody, human IgG1, kappa, N297G, V domains shown)
VH: B2 VH with V71K, V78F
VL: B2 VL
B5: h2A10.v1 (antibody, human IgG1, kappa, N297G, V domains shown)
VH: EVQLVESGGGLVQPGPSLRLSCTASGFDFNSYGMSWVRQAPGKGLELVADIVSKTYNYTTYYSDSVKDRFTISRDDSKSIVYLQMNSLKTEDTAVYYCTVAPGGSFDYWGQGTLVTVSS
VL: DIQLTQSPSSLSASVGDRVTITCRASQSVSISRFNLMHWYQHKPGKQPKLLIYRASNLASGIPSRFSGSGSGTDFTLTISSLQPEDFATYYCQHSRESPWTFGGGTKVEIKR
notes: also called humanized 2A10 version 1
B6: h2A10.v2.5 (antibody, human IgG1, kappa, N297G, V domains shown)
VH: B5 VH with V5L, P16G, T23A, L47W, I80T, K89R, T90A
VL: B5 VL
B7: h6F12.v1 (antibody, human IgG1, kappa, N297G, V domains shown)
VH: EVTLKESGPVLVKPTETLTLTCTVSGFSLTTYNVHWVRQPPGKALEWMGLIWNTGGTRYNSALKSRLTISKDTSKSQVVLTMTNMDPVDTATYYCARDPVPNKWHFDFWGPGTLVTVSS
VL: DIQMTQSPSTLSASVGDRVTITCLASEDIYSNLAWYQQKPGKSPKLLIYDARSLQDGVPSRFSGSESGPEYTLTISSLQPDDFATYFCQQHHAYPFTFGQGTKVEIKR
B8: h6F12.v3 (antibody, human IgG1, kappa, N297G, V domains shown)
VH: B7 VH
VL: B1 VL
B9: h6F12.v2 (antibody, human IgG1, kappa, N297G, V domains shown)
VH: B1 VH
VL: B7 VL

Experiments:
[1] = target: T1, human TGFβ2, mature receptor-binding domain (human, UniProt P09858 303-414 (pig entry), The mature TGFβ2 is a disulfide-linked homodimer of this 112-residue chain. The 4A11 epitope spans both monomers (p-1207).); assay: cell-based or functional assay
T1 sequence: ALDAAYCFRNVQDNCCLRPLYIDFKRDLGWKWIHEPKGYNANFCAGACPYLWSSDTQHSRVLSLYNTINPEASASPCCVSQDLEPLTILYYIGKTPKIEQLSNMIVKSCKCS

[2] = target: T2, human TGFβ1, mature receptor-binding domain (human, UniProt P01137 279-390); assay: cell-based or functional assay
[3] = target: T3, human TGFβ3, mature dimeric form (human, UniProt P10600 301-412); assay: cell-based or functional assay
T3 sequence: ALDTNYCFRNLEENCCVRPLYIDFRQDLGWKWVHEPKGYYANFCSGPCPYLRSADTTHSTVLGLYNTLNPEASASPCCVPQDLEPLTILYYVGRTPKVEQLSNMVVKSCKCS

[4] = target: T1, human TGFβ2, mature receptor-binding …; assay: cell-based or functional assay; remark: listed apart in the source
[5] = target: T1, human TGFβ2, mature receptor-binding …; assay: BIAcore T200
[6] = target: T3, human TGFβ3, mature dimeric form; assay: cell-based or functional assay; remark: listed apart in the source
[7] = target: T1, human TGFβ2, mature receptor-binding …; assay: BIAcore T200; remark: listed apart in the source
Description: (§1) For binding affinity determinations of all humanized 2A10 antibodies, Surface Plasmon Resonance (SPR) measurement with a BIAcore™-T200 instrument was used. Briefly, series S CM5 biosensor chip with protein A was first applied to capture each humanized 2A10 variant to achieve approximately 100 response units (RU) on each flow cell, following by injection of 3-fold serial dilutions of human TGFβ1, TGFβ2 or TGFβ3 (0.02 nM to 5 nM) in HBS-EP buffer (0.01M HEPES pH 7.4, 0.15M NaCl, 3 mM EDTA and 0.05% v/v surfactant P20) at 25° C. with a flow rate of 50 μl/min for kinetics measurement. Association rates (ko.) and dissociation rates (koff) were calculated using a simple one-to-one Langmuir binding model (BIAcore T200 evaluation software version 2.0) to determine the equilibrium dissociation constant (KD), which was calculated as the ratio koff/kₒₙ.
(§2) Binding affinity determinations of all humanized 4A11 antibodies were performed using SPR measurement with a BIAcore™-T200 instrument, as described above in Example 6 ([…]).

[8] = target: T3, human TGFβ3, mature dimeric form; assay: BIAcore T200
Description: as §1, §2

[9] = target: T1, human TGFβ2, mature receptor-binding …; assay: BIAcore T200; remark: listed apart in the source
[10] = target: T3, human TGFβ3, mature dimeric form; assay: BIAcore T200; remark: listed apart in the source
[11] = target: T1, human TGFβ2, mature receptor-binding …; assay: cell-based or functional assay; remark: listed apart in the source
[12] = target: T2, human TGFβ1, mature receptor-binding …; assay: cell-based or functional assay; remark: listed apart in the source
[13] = target: T3, human TGFβ3, mature dimeric form; assay: cell-based or functional assay; remark: listed apart in the source
[14] = target: T1, human TGFβ2, mature receptor-binding …; assay: BIAcore T200; remark: listed apart in the source
Description: as §1

[15] = target: T3, human TGFβ3, mature dimeric form; assay: BIAcore T200; remark: listed apart in the source
Description: as §1

[16] = target: T1, human TGFβ2, mature receptor-binding …; assay: cell-based or functional assay; remark: listed apart in the source
[17] = target: T2, human TGFβ1, mature receptor-binding …; assay: cell-based or functional assay; remark: listed apart in the source
[18] = target: T3, human TGFβ3, mature dimeric form; assay: cell-based or functional assay; remark: listed apart in the source
[19] = target: T1, human TGFβ2, mature receptor-binding …; assay: cell-based or functional assay; remark: listed apart in the source
[20] = target: T2, human TGFβ1, mature receptor-binding …; assay: cell-based or functional assay; remark: listed apart in the source
[21] = target: T3, human TGFβ3, mature dimeric form; assay: cell-based or functional assay; remark: listed apart in the source

T2 sequence (P01137 279-390 limits assumed): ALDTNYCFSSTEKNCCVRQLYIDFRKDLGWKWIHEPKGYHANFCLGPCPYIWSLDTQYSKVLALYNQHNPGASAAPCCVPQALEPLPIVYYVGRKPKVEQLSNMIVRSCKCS

| Binder | HEKBlue TGFβ blocking IC50 [1] [nM] | HEKBlue TGFβ blocking IC50 [2] [nM] | HEKBlue TGFβ blocking IC50 [3] [nM] | fold drop in blocking against r6F12 [4] [fold] | Kd [5] [nM] | Kd [7] [nM] | Kd [8] [nM] | fold drop in binding against h4A11.v7 [9] [fold] | HEKBlue TGFβ blocking IC50 [11] [nM] | HEKBlue TGFβ blocking IC50 [12] [nM] | HEKBlue TGFβ blocking IC50 [13] [nM] | other results |
| --- | --- | --- | --- | --- | --- | --- | --- | --- | --- | --- | --- | --- |
| B1 | 0.02 | > 200 | > 200 | 2.5 to 5 | ≤ 0.0005 |  |  |  |  |  |  |  |
| B2 |  |  |  |  |  | 0.0401 | 0.0214 | 6 | > 200 | > 200 | 3.53 | fold loss of blocking against h4A11.v7 [4]: > 2000 fold; fold loss of blocking against h4A11.v7 [6]: 118 fold; fold drop in binding against h4A11.v7 [10]: 2 fold |
| B3 |  |  |  |  |  | 0.0092 | 0.0093 | ~2 | 0.16 | > 200 | 0.04 | fold loss of blocking against h4A11.v7 [4]: ~2 fold |
| B4 |  |  |  |  |  | 0.0159 | 0.0089 | 2.5 | 0.03 | > 200 | 0.05 |  |
| B5 |  |  |  |  |  |  |  |  |  |  |  | binding result [9]: binds; binding result [10]: binds |
| B6 |  |  |  |  |  |  |  |  |  |  |  | Kd [14]: 2.82 nM; Kd [15]: 0.5 nM; fold loss of TGFβ3 blocking against h2A10.v2 [6]: > 10 fold; HEKBlue TGFβ blocking IC50 [16]: > 200 nM; HEKBlue TGFβ blocking IC50 [17]: > 200 nM; HEKBlue TGFβ blocking IC50 [18]: 27.4 nM; fold drop in TGFβ3 binding against h2A10.v2 [10]: 385 fold |
| B7 | 0.02 | > 200 | > 200 | 2.5 to 5 | ≤ 0.0005 |  |  |  |  |  |  | HEKBlue TGFβ blocking IC50 [19]: 0.02 nM; HEKBlue TGFβ blocking IC50 [20]: > 200 nM; HEKBlue TGFβ blocking IC50 [21]: > 200 nM |
| B8 | 0.005 | > 200 | > 200 |  | ≤ 0.0005 |  |  |  |  |  |  |  |
| B9 | 0.01 | > 200 | > 200 | 2.5 to 5 | ≤ 0.0005 |  |  |  |  |  |  |  |
